This is an account of results in PMC10023570, “Essential protein P116 extracts cholesterol and other indispensable lipids for Mycoplasmas” (Nature Structural & Molecular Biology, 2023).

Series [1] concerns the target P116 W681A (M. pneumoniae) (UniProt P75556). Description: SEC-MALS; Superose 6 10/300 GL column, DAWN HELEOS II MALS detector and Optilab T-REX refractive index detector. (Size exclusion chromatography separates by hydrodynamic size, large species first.)
Series [2] deals with the molecule itself. The description is as above.

With “P116 W681A (from UniProt P75556 30-957) (domain or fragment)”, in series [1], the rate of dimers to monomers (dimers:monomers) amounted to 0.25.

B1: P116 (30–957), ectodomain of P116 (MPN_213) from Mycoplasma pneumoniae (domain or fragment)
chain: NKTHQVEHESEQSDFQDIRFGLNSVKLPKAQPAAATRITVENGTDKLVNYKSSPQQLFLAKNALKDKLQGEFDKFLSDAKAFPALTADLQEWVDQQLFNPNQSFFDLSAPRSNFTLSSDKKASLDFIFRFTNFTESVQLLKLPEGVSVVVDSKQSFDYYVNASAQKLLVLPLSLPDYTLGLNYMFDHITLNGKVVNKFSFNPFKTNLNLAFSNVYNGVDVFEAQKNLVGKGKYLNTHVKAEDVKKDVNANIKNQFDIAKIIAELMGKALKEFGNQQEGQPLSFLKVMDKVKEDFEKLFNLVRPGLGKFVKDLIQSSSQAENKITVYKLIFDNKKTILNLLKELSIPELNSSLGLVDVLFDGITDSDGLYERLQSFKDLIVPAVKTNEKTAALSPLIEELLTQKDTYVFDLIQKHKGILTNLLKNFLADFQKSTPFMADQVAIFTELFDNEGAFDLFGEADFVDKIAELFLTKRTVKNGEKIETKDSLLVTSLKSLLGEKVAALGDLLDSYIFKNELLNRSVEVAKAEAKDTKGATDYKKEQAKALKKLFKHIGENTLSKTNLDKITLKEVKNTENVELEETETTLKVKKLDVEYKVELGNFEIKNGLIKAMLEFLPDTKDLETTLDKLLFKGESYKAMKDKYIKEGFPGYGWAKGVVPGAFESIENTFKSAIDKTKSIRDLFGDMLFGNDLSSVKETDSFITLGGSFDIKYGGENLNVLPAYYSLINSEIGYQIIGVDTTIDATKVKVELKNKEYKGKSPAINGQVKLSQSFFNVWTNMFDSITKQIFQKKYEFKDNIQVFARNEDNTSRLELDISDPEQRVIPFAFVDGFGIQLKAVDKNITKEAGNTEPKSPVIQLYEALNKEKDQKQQSKQSPKQLDTKTQLGYLLKLGDNWSKDDYKSLIDDTIINNNYLEASFNSKITVDRLG
notes: source: E. coli B834 (DE3), purified (HisTrap, Superdex 200)
As usually defined, the stoichiometry N is the number of molecules, sites or subunits per partner or assembly. With B1, the “stoichiometry N” value in series [2] was found to be 2.
